Results on one molecule are retold here after PMC12126490, “The HP1 box of KAP1 organizes HP1α for silencing of endogenous retroviral elements in embryonic stem cells” (Nature Communications, 2025).

Assay [1] deals with endogenous HP1α in KAP1^−/− ESCs. Briefly: immunofluorescence of endogenous HP1α. The following applies: KAP1^−/− mouse ESCs stably expressing the GFP-labeled construct, anti-HP1α antibody, DAPI. The class given is cell-based. As to the method:
The constructs coding for GFP-KAP1RF and the P486A/V488A/L490A mutant were transfected into 1 ×10^5 KAP1^−/− mouse ESCs using Lipofectamine 3000 (Invitrogen). Forty-eight hours post-transfection, cells were trypsinized and plated at a colony density in selection medium containing 10 μg/ml blasticidin (Thermo Fisher Sci) for one week. The selection process was repeated once to establish stable GFP-KAP1 expressing cell lines.
For immunostaining, mouse ESCs were cultured on Geltrex-coated coverslips (Life Technologies) in DMEM supplemented with 16% fetal bovine serum, 0.1 mM β-mercaptoethanol (Invitrogen), 2 mM L-glutamine, 1× MEM non-essential amino acids, 100 U/ml penicillin, 100 µg/ml streptomycin (PAA), 2i (1 μM PD032591 and 3 μM CHIR99021 (Axon Medchem, Netherlands) and 1000 U/ml recombinant LIF (Millipore). Coverslips were rinsed twice with PBS (pH 7.4; 140 mM NaCl, 2.7 mM KCl, 6.5 mM Na2HPO4, 1.5 mM KH2PO4), followed by fixation with 3.7% formaldehyde (Sigma) for 10 min. Fixed cells were washed three times (10 min each) with PBST (PBS + 0.01% Tween-20), permeabilized in 0.5% Triton X-100 for 10 min, and washed twice (10 min each) with PBST. Primary and secondary antibodies were prepared in blocking solution (PBST + 3% BSA). […]

In assay [2] the test system is dsRed-HP1α in E14 ESC cells. Put plainly: heterochromatin half-FRAP (MOCHA-FRAP). The class given is cell-based, mouse. The following applies: bleached and non-bleached half of heterochromatin compartment, living ESCs. As to the method: E14 ESC cells were transfected with 3 µg of pdsRed-HP1α and either pGFP or pGFP-KAP1FR using AMAXA nucleofector (Lonza), seeded in slide chambers containing high precision glass overnight at 37 °C and 5% CO2. Samples were analyzed using a Leica SP5-II confocal point scanner microscope equipped with 488 nm Argon ion and 561 nm DPSS 50 mW lasers, a AOBS beams splitter and a HyD Hybrid detector. Cells were first scanned for GFP^+ using a HCX PL APO 100x Corr CS objective, and a section of 64 × 64 pixels with 0.8-0.6 µm/px size containing one heterochromatin compartment of these cells was selected. Subsequently, a point region of interest was used to bleach the half of the heterochromatin compartment for 100 ms at maximum intensity of the laser (488 and 561 nm). The recovery was documented for 15 s with a frame rate of approximately 100 ms/frame. MOCHA-FRAP analysis was performed as in ref. [36].

The subject of assay [3] is DNA-induced HP1α phase separated droplets. Put plainly: in vitro droplet assay. To be noted: 50 µM HP1α, 0.18 µM 601 DNA. From the text:
For droplet assays, cDNA of full-length HP1α was cloned into a pET28 expression vector. His-tag fusion HP1α was expressed in E. coli and purified as in ref. [51]. cDNA of the KAP1FR fragment (aa 114–834) was cloned into a pCAG-GFP expression vector, and the P486A/V488A/L490A mutant of GFP-KAP1FR was generated using overlap extension PCR. Purification of GFP-KAP1FR proteins was described in ref. [52].
For the droplet assay, Widom 601 DNA was amplified by PCR using a plasmid coding for 12× 601 DNA with primers as follows: 601 DNA_F: […] and 601 DNA_R: TGCACAGGATGTATATATCTGACAC. HP1α was concentrated to ~10 µg/µl using Amicon concentrators. The buffer changes for both HP1α and GFP-KAP1FR solutions were carried out using Zeba™ Spin Desalting Columns with a buffer containing 20 mM HEPES at pH 7.2, 75 mM KCl, and 1 mM DTT. For visualization of His-tagged-HP1α within the droplets, 500 ng of protein was labeled with the 647 N fluorescent label using the Monolith NT™ Protein Labeling Kit RED-NHS from Nano Temper. To form HP1α droplets, 50 µM of HP1α was incubated with 0.18 µM of 601 DNA for 3 min and dropped into ibidi chamber (µ-Slide 18 Well). Subsequently, 50 ng of the labeled HP1α and 100 ng of GFP-KAP1FR (wild type or mutant) were added into HP1α/DNA droplets. The images of the droplets were collected using a Nikon TiE microscope equipped with a Yokogawa CSU-W1 spinning-disk confocal unit (50 μm pinhole size), an Andor Borealis illumination unit, Andor ALC600 laser beam combiner (405 nm/488 nm/561 nm/640 nm), Andor IXON 888 Ultra EMCCD camera, and a Nikon 100×/1.45 NA oil immersion objective. The size and intensity of HP1α phase-separated droplets were analyzed using ImageJ.

B1: GFP-KAP1FR: GFP labeled KAP1 fragment (aa 114–834 of KAP1) (protein)
chain: VVDCPVCKQQCFSKDIVENYFMRDSGSKAATDAQDANQCCTSCEDNAPATSYCVECSEPLCETCVEAHQRVKYTKDHTVRSTGPAKSRDGERTVYCNVHKHEPLVLFCESCDTLTCRDCQLNAHKDHQYQFLEDAVRNQRKLLASLVKRLGDKHATLQKSTKEVRSSIRQVSDVQKRVQVDVKMAILQIMKELNKRGRVLVNDAQKVTEGQQERLERQHWTMTKIQKHQEHILRFASWALESDNNTALLLSKKLIYFQLHRALKMIVDPVEPHGEMKFQWDLNAWTKSAEAFGKIVAERPGTNSTGPAPMAPPRAPGPLSKQGSGSSQPMEVQEGYGFGSGDDPYSSAEPHVSGVKRSRSGEGEVSGLMRKVPRVSLERLDLDLTADSQPPVFKVFPGSTTEDYNLIVIERGAAAAATGQPGTAPAGTPGAPPLAGMAIVKEEETEAAIGAPPTATEGPETKPVLMALAEGPGAEGPRLASPSGSTSSGLEVVAPEGTSAPGGGPGTLDDSATICRVCQKPGDLVMCNQCEFCFHLDCHLPALQDVPGEEWSCSLCHVLPDLKEEDGSLSLDGADSTGVVAKLSPANQRKCERVLLALFCHEPCRPLHQLATDSTFSLDQPGGTLDLTLIRARLQEKLSPPYSSPQEFAQDVGRMFKQFNKLTEDKADVQSIIGLQRFFETRMNEAFGDTKFSAVLVEPPPMSLPGAGLSSQELSGGPGDG
modifications: left off: GFP, end not stated, kept
Consider B1, for which the “distribution of endogenous HP1α (puncta)” value in assay [1] is “Endogenous HP1α formed large puncta and colocalized with GFP-KAP1FR”. For the same molecule, the “fluorescence recovery of HP1α” value in assay [2] was “neither the bleached half (thin purple line) nor the non-bleached half (thick purple line) fully recovered their fluorescence”. Also, the “sequestration of 647N labeled HP1α into droplets” value in assay [3] (20 mM HEPES pH 7.2, 75 mM KCl, 1 mM DTT, 100 ng GFP-KAP1FR, 50 ng labeled HP1α) is “sequestered HP1a into the interior of droplets within a minute”. The “localization of GFP-KAP1FR in droplets” value in assay [3] (confocal microscopy) is “concentrated at the periphery of the droplets”.
